In patent US12583886 (KING ABDULLAH UNIVERSITY OF SCIENCE AND TECHNOLOGY, dated 2026):

B1: human DNA polymerase eta (Polη), native after SUMO protease digestion (enzyme, UniProt Q9Y253 1-713, looked up)
chain: MATGQDRVVALVDMDCFFVQVEQRQNPHLRNKPCAVVQYKSWKGGGIIAVSYEARAFGVTRSMWADDAKKLCPDLLLAQVRESRGKANLTKYREASVEVMEIMSRFAVIERASIDEAYVDLTSAVQERLQKLQGQPISADLLPSTYIEGLPQGPTTAEETVQKEGMRKQGLFQWLDSLQIDNLTSPDLQLTVGAVIVEEMRAAIERETGFQCSAGISHNKVLAKLACGLNKPNRQTLVSHGSVPQLFSQMPIRKIRSLGGKLGASVIEILGIEYMGELTQFTESQLQSHFGEKNGSWLYAMCRGIEHDPVKPRQLPKTIGCSKNFPGKTALATREQVQWWLLQLAQELEERLTKDRNDNDRVATQLVVSIRVQGDKRLSSLRRCCALTRYDAHKMSHDAFTVIKNCNTSGIQTEWSPPLTMLFLCATKFSASAPSSSTDITSFLSSDPSSLPKVPVTSSEAKTQGSGPAVTATKKATTSLESFFQKAAERQKVKEASLSSLTAPTQAPMSNSPSKPSLPFQTSQSTGTEPFFKQKSLLLKQKQLNNSSVSSPQQNPWSNCKALPNSLPTEYPGCVPVCEGVSKLEESSKATPAEMDLAHNSQSMHASSASKSVLEVTQKATPNPSLLAAEDQVPCEKCGSLVPVWDMPEHMDYHFALELQKSFLQPHSSNPQVVSAVSHQGKRNPKSPLACTNKRPRPEGMQTLESFFKPLTH
notes: mature; also called Poln
B2: human DNA polymerase kappa (Polκ), N-terminally Histidine- and SUMO-tagged (enzyme, UniProt Q9UBT6 1-870, looked up)
chain: MDSTKEKCDSYKDDLLLRMGLNDNKAGMEGLDKEKINKIIMEATKGSRFYGNELKKEKQVNQRIENMMQQKAQITSQQLRKAQLQVDRFAMELEQSRNLSNTIVHIDMDAFYAAVEMRDNPELKDKPIAVGSMSMLSTSNYHARRFGVRAAMPGFIAKRLCPQLIIVPPNFDKYRAVSKEVKEILADYDPNFMAMSLDEAYLNITKHLEERQNWPEDKRRYFIKMGSSVENDNPGKEVNKLSEHERSISPLLFEESPSDVQPPGDPFQVNFEEQNNPQILQNSVVFGTSAQEVVKEIRFRIEQKTTLTASAGIAPNTMLAKVCSDKNKPNGQYQILPNRQAVMDFIKDLPIRKVSGIGKVTEKMLKALGIITCTELYQQRALLSLLFSETSWHYFLHISLGLGSTHLTRDGERKSMSVERTFSEINKAEEQYSLCQELCSELAQDLQKERLKGRTVTIKLKNVNFEVKTRASTVSSVVSTAEEIFAIAKELLKTEIDADFPHPLRLRLMGVRISSFPNEEDRKHQQRSIIGFLQAGNQALSATECTLEKTDKDKFVKPLEMSHKKSFFDKKRSERKWSHQDTFKCEAVNKQSFQTSQPFQVLKKKMNENLEISENSDDCQILTCPVCFRAQGCISLEALNKHVDECLDGPSISENFKMFSCSHVSATKVNKKENVPASSLCEKQDYEAHPKIKEISSVDCIALVDTIDNSSKAESIDALSNKHSKEECSSLPSKSFNIEHCHQNSSSTVSLENEDVGSFRQEYRQPYLCEVKTGQALVCPVCNVEQKTSDLTLFNVHVDVCLNKSFIQELRKDKFNPVNQPKESSRSTGSSSGVQKAVTRTKRPGLMTKYSTSKKIKPNNPKHTLDIFFK
notes: mature; The SUMO tag was removed only after the PCNA-Agarose step; also called Polk; not shown: N-terminal Histidine tag and SUMO tag from the pESUMO pro vector
B3: human DNA polymerase iota (Polι), N-terminally Histidine- and SUMO-tagged (enzyme, UniProt Q9UNA4 1-740, looked up)
chain: MEKLGVEPEEEGGGDDDEEDAEAWAMELADVGAAASSQGVHDQVLPTPNASSRVIVHVDLDCFYAQVEMISNPELKDKPLGVQQKYLVVTCNYEARKLGVKKLMNVRDAKEKCPQLVLVNGEDLTRYREMSYKVTELLEEFSPVVERLGFDENFVDLTEMVEKRLQQLQSDELSAVTVSGHVYNNQSINLLDVLHIRLLVGSQIAAEMREAMYNQLGLTGCAGVASNKLLAKLVSGVFKPNQQTVLLPESCQHLIHSLNHIKEIPGIGYKTAKCLEALGINSVRDLQTFSPKILEKELGISVAQRIQKLSFGEDNSPVILSGPPQSFSEEDSFKKCSSEVEAKNKIEELLASLLNRVCQDGRKPHTVRLIIRRYSSEKHYGRESRQCPIPSHVIQKLGTGNYDVMTPMVDILMKLFRNMVNVKMPFHLTLLSVCFCNLKALNTAKKGLIDYYLMPSLSTTSRSGKHSFKMKDTHMEDFPKDKETNRDFLPSGRIESTRTRESPLDTTNFSKEKDINEFPLCSLPEGVDQEVFKQLPVDIQEEILSGKSREKFQGKGSVSCPLHASRGVLSFFSKKQMQDIPINPRDHLSSSKQVSSVSPCEPGTSGFNSSSSSYMSSQKDYSYYLDNRLKDERISQGPKEPQGFHFTNSNPAVSAFHSFPNLQSEQLFSRNHTTDSHKQTVATDSHEGLTENREPDSVDEKITFPSDIDPQVFYELPEAVQKELLAEWKRAGSDFHIGHK
notes: mature; The SUMO tag was removed only after the PCNA-Agarose step; also called Polt; Poli; not shown: N-terminal Histidine tag and SUMO tag from the pESUMO pro vector
B4: human p15, N-terminally Histidine- and SUMO-tagged (other, UniProt Q15004 1-111, looked up)
chain: MVRTKADSVPGTYRKVVAARAPRKVLGSSTSATNSTSVSSRKAENKYAGGNPVCVRPTPKWQKGIGEFFRLSPKDSEKENQIPEEAGSSGLGKAKRKACPLQPDHTNDEKE
notes: mature; The PCNA-Agarose column was the first step, so the His- and SUMO-tags were still on the protein; not shown: N-terminal Histidine tag and SUMO tag from the pESUMO pro vector

Columns and labels:
[1] = target: human PCNA N107C, N-terminally Histidine-tagged, coupled to SulfoLink agarose resin (PCNA-Agarose column) (human) (UniProt P12004); test: salt-gradient elution from PCNA-Agarose column, empirical cumulative integration
[2] = target: human PCNA N107C, N-terminally Histidine-tagged, coupled to SulfoLink agarose resin (PCNA-Agarose column) (human) (UniProt P12004); test: salt-gradient elution from PCNA-Agarose column (N107C PCNA on SulfoLink resin), EMG fit of UV 280 nm peak
[3] = target: T1, human PCNA N107C, N-terminally Histidine-tagged, coupled to SulfoLink agarose resin (PCNA-Agarose column) (human, UniProt P12004 1-261, Cys 107 joined by a thioether bond to the iodoacetyl group of SulfoLink agarose resin); test: as above
T1 construct: Homo-trimeric ring; Immobilised bait on the column; also called N107C-PCNA; Proliferating Cell Nuclear Antigen

[4] = target: T1, human PCNA N107C, N-terminally …; test: salt-gradient elution from PCNA-Agarose column, empirical cumulative integration
From the text: Two different methods were used for defining and determining this salt concentration. One method relies on empirical calculations while the second method employs a specific model for the elution peak shape. For both methods, protein elution from the column was monitored by the value recorded by the UV detector at 280 nm. The UV absorption was then plotted on the y-axis versus the NaCl concentration (here denoted as 'c') on the x-axis in the gradient region of each chromatogram. Since linear gradients were used for elution, the conversion is readily feasible from the volume in ml to salt concentration in mM on the x-axis, resulting in direct rescaling of the axis.
A binding assay based on chromatography is presented, where the PCNA-Agarose column is used as an analytical tool. The protein of interest was loaded onto the PCNA-Agarose column at low salt concentration followed by extensive washing with a buffer of an equal ionic strength to remove the non-specifically bound proteins. A salt gradient was applied to the column to elute the bound protein of interest. This gradient region of elution in the chromatogram was used for the subsequent analysis. […] The resulting data points, i.e., UV units versus salt concentrations, were analyzed either by the empirical method of cumulative integration or by fitting the peak profile with an EMG model. […]

T1 sequence (P12004 other isoform, or with tags, fused parts or gaps N107C N107C limits assumed): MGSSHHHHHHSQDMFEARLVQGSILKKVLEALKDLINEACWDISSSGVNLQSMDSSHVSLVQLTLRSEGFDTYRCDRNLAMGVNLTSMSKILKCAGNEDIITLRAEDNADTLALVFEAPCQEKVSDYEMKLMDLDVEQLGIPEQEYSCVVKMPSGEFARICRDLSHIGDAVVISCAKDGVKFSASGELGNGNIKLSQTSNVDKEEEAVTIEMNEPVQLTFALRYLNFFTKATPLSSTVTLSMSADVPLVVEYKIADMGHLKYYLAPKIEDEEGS
Chain of human PCNA N107C, N-terminally Histidine-tagged, coupled to SulfoLink agarose resin (PCNA-Agarose column) (human) (P12004 other isoform, or with tags, fused parts or gaps N107C N107C limits assumed): as above

Molecule	median NaCl concentration of elution (50% cumulative elution) [1]	Elution Peak (mM NaCl, mode of EMG fit) [2]	Elution Peak (mM NaCl, mode of EMG fit) [3]	median NaCl concentration of elution (50% cumulative elution) [4]
human DNA polymerase delta (Polδ), four-subunit complex p125/p50/p68/p12 expressed in Sf9 insect cells (from UniProt P28340 1-1107; P49005 1-469; Q15054 1-466; Q9HCU8 1-107) (enzyme)	> 400 mM	534 mM	–	–
B1	–	–	513 mM	> 400 mM
B2	–	–	547 mM	> 400 mM
B3	–	–	359 mM	–
B4	–	–	340 mM	–
